Results as given in PMC3409459, “Absorption, distribution, metabolism and excretion of peginesatide, a novel erythropoiesis-stimulating agent, in rats” (Xenobiotica; the Fate of Foreign Compounds in Biological …, 2011).

Assay: Tissue distribution of radioactivity by LSC following combustion, albino rats
Assay type: in vivo, male Sprague-Dawley (albino) rats
Conditions: for Concentration of the radioactivity, Pituitary / Concentration of the radioactivity, Plasma / Concentration of the radioactivity, Skeletal muscle / Concentration of the radioactivity, Skin / Concentration of the radioactivity, Spinal cord / Concentration of the radioactivity, Spleen / Concentration of the radioactivity, Stomach / Concentration of the radioactivity, Submandibular lymph nodes / Concentration of the radioactivity, Testes / Concentration of the radioactivity, Thymus / Concentration of the radioactivity, Thyroid gland / Concentration of the radioactivity, Urinary bladder / Concentration of the radioactivity, Adrenals / Concentration of the radioactivity, Blood / Concentration of the radioactivity, Bone (femur) / Concentration of the radioactivity, Bone marrow / Concentration of the radioactivity, Brain / Concentration of the radioactivity, Eyes / Concentration of the radioactivity, Fat / Concentration of the radioactivity, Harderian glands / Concentration of the radioactivity, Heart / Concentration of the radioactivity, Intestine / Concentration of the radioactivity, Kidneys / Concentration of the radioactivity, Liver / Concentration of the radioactivity, Lungs / Concentration of the radioactivity, Pancreas: mean ± SD, n=3; for tissue to plasma ratios: single IV 5 mg·kg^−1
Experimental: Total captured radioactivity was subsequently measured via LSC.
Male Sprague-Dawley (albino) rats (n = 21; three per time point) were administered a single IV dose of 5 mg·kg^−1 [^14C]-peginesatide (27.5 μCi/kg) and tissue concentrations of radioactivity determined at 0.25, 6, and 24 h, and 7,14,30 and 60 days following dosing. Similarly, male Long Evans (pigmented) rats (n = 21; three per time point) were administered a single IV dose of 5 mg-kg^−1 [^14C]-peginesatide and plasma, skin, and eye concentrations of radioactivity were measured at the various time points through 60 days after dosing. At each time point, blood was collected, the animals sacrificed, and tissues excised. Tissues collected from the Sprague-Dawley rats included blood, plasma, adrenals, bone marrow, brain, eyes, fat, femur, Harderian glands, heart, hypophysis, intestine, kidneys, lungs, liver, pancreas, skeletal muscle, skin, spinal cord, spleen, stomach, submaxillary glands, testes, thymus, thyroid gland, and urinary bladder. Plasma, eyes, non-pigmented skin, and pigmented skin were collected from Long Evans rats. All tissue samples were measured for radioactivity by LSC following combustion. The liver and intestine were first homogenized in distilled water (20% w/v) prior to analysis. The concentration of radioactivity in the blood, plasma, and tissues was calculated and expressed as ug equiv·g^-1 or mLbased on the LSC counts and the specific activity of the dosing solution.

[1] = 60 Days after single IV 5 mg·kg^−1, LSC
[2] = 0.25 h after single IV 5 mg·kg^−1, LSC
[3] = 6 h after single IV 5 mg·kg^−1, LSC
[4] = 24 h after single IV 5 mg·kg^−1, LSC

In the case of Peginesatide, the “Concentration of the radioactivity, Pituitary” value (“Concentration … Pituitary” for short) [1] was 4.32 ± 0.289 μg equiv·g^−1 or mL, the “Concentration of the radioactivity, Plasma” value (“Concentration … Plasma” for short) [1] was 0.232 ± 0.042 μg equiv·g^−1 or mL and the “Concentration of the radioactivity, Skeletal muscle” value (from here on “Concentration … Skeletal muscle”) [1] was 0.085 ± 0.021 μg equiv·g^−1 or mL. For the same substance, the “Concentration of the radioactivity, Skin” value [1] was 0.394 ± 0.080 μg equiv·g^−1 or mL, the “Concentration of the radioactivity, Spinal cord” value (shortened to “Concentration … Spinal cord”) [1] was 0.036 ± 0.018 μg equiv·g^−1 or mL and the “Concentration of the radioactivity, Spleen” value (“Concentration … Spleen” below) [1] was 3.40 ± 0.480 μg equiv·g^−1 or mL. For the same substance, the “Concentration of the radioactivity, Stomach” value (“Concentration … Stomach” for short) [1] was 0.590 ± 0.242 μg equiv·g^−1 or mL, the “Concentration of the radioactivity, Submandibular lymph nodes” value (shortened to “Concentration … Submandibular lymph nodes”) [1] was 8.74 ± 1.22 μg equiv·g^−1 or mL and the “Concentration of the radioactivity, Testes” value (from here on “Concentration … Testes”) [1] was 5.10 ± 2.17 μg equiv·g^−1 or mL. For the same substance, the “Concentration of the radioactivity, Thymus” value (from here on “Concentration … Thymus”) [1] was 1.15 ± 0.155 μg equiv·g^−1 or mL, the “Concentration of the radioactivity, Thyroid gland” value (from here on “Concentration … Thyroid gland”) [1] was 8.03 ± 1.45 μg equiv·g^−1 or mL and the “Concentration of the radioactivity, Urinary bladder” value (“Concentration … Urinary bladder” for short) [1] was 0.967 ± 0.188 μg equiv·g^−1 or mL. For the same substance, the “Concentration of the radioactivity, Adrenals” value (shortened to “Concentration … Adrenals”) [2] was 8.45 ± 0.517 μg equiv·g^−1 or mL, the “Concentration of the radioactivity, Blood” value (from here on “Concentration … Blood”) [2] was 80.9 ± 1.90 μg equiv·g^−1 or mL and the “Concentration of the radioactivity, Bone (femur)” value (from here on “Concentration … (femur)”) [2] was 1.95 ± 0.128 μg equiv·g^−1 or mL. The “Concentration of the radioactivity, Bone marrow” value (from here on “Concentration … Bone marrow”) [2] was 9.66 ± 0.367 μg equiv·g^−1 or mL, the “Concentration of the radioactivity, Brain” value (“Concentration … Brain” below) [2] was 1.18 ± 0.030 μg equiv·g^−1 or mL and the “Concentration of the radioactivity, Eyes” value [2] was 0.346 ± 0.029 μg equiv·g^−1 or mL. The “Concentration of the radioactivity, Fat” value [2] was 0.861 ± 0.096 μg equiv·g^−1 or mL, the “Concentration of the radioactivity, Harderian glands” value (“Concentration … Harderian glands” for short) [2] was 1.15 ± 0.357 μg equiv·g^−1 or mL and the “Concentration of the radioactivity, Heart” value (“Concentration … Heart” for short) [2] was 6.33 ± 0.512 μg equiv·g^−1 or mL. For the same substance, the “Concentration of the radioactivity, Intestine” value (from here on “Concentration … Intestine”) [2] was 1.47 ± 0.158 μg equiv·g^−1 or mL, the “Concentration of the radioactivity, Kidneys” value (from here on “Concentration … Kidneys”) [2] was 11.2 ± 1.48 μg equiv·g^−1 or mL and the “Concentration of the radioactivity, Liver” value (“Concentration … Liver” below) [2] was 7.03 ± 0.613 μg equiv·g^−1 or mL. The “Concentration of the radioactivity, Lungs” value (“Concentration … Lungs” for short) [2] was 8.46 ± 0.824 μg equiv·g^−1 or mL, the “Concentration of the radioactivity, Pancreas” value (from here on “Concentration … Pancreas”) [2] was 2.56 ± 0.036 μg equiv·g^−1 or mL and the “Concentration … Pituitary” value [2] was 13.2 ± 1.08 μg equiv·g^−1 or mL. The “Concentration … Plasma” value [2] was 131 ± 3.86 μg equiv·g^−1 or mL, the “Concentration … Skeletal muscle” value [2] was 0.569 ± 0.100 μg equiv·g^−1 or mL and the “Concentration of the radioactivity, Skin” value [2] was 0.376 ± 0.103 μg equiv·g^−1 or mL. The “Concentration … Spinal cord” value [2] was 0.909 ± 0.289 μg equiv·g^−1 or mL, the “Concentration … Spleen” value [2] was 4.62 ± 0.185 μg equiv·g^−1 or mL and the “Concentration … Stomach” value [2] was 1.32 ± 0.257 μg equiv·g^−1 or mL. The “Concentration … Submandibular lymph nodes” value [2] was 2.57 ± 0.038 μg equiv·g^−1 or mL, the “Concentration … Testes” value [2] was 1.14 ± 0.083 μg equiv·g^−1 or mL and the “Concentration … Thymus” value [2] was 0.669 ± 0.115 μg equiv·g^−1 or mL. For the same substance, the “Concentration … Thyroid gland” value [2] was 8.25 ± 1.42 μg equiv·g^−1 or mL, the “Concentration … Urinary bladder” value [2] was 2.40 ± 1.32 μg equiv·g^−1 or mL and the “Concentration … Adrenals” value [3] was 7.83 ± 1.38 μg equiv·g^−1 or mL. The “Concentration … Blood” value [3] was 60.9 ± 4.36 μg equiv·g^−1 or mL, the “Concentration … (femur)” value [3] was 1.53 ± 0.555 μg equiv·g^−1 or mL and the “Concentration … Bone marrow” value [3] was 8.66 ± 2.79 μg equiv·g^−1 or mL. For the same substance, the “Concentration … Brain” value [3] was 0.939 ± 0.015 μg equiv·g^−1 or mL, the “Concentration of the radioactivity, Eyes” value [3] was 0.779 ± 0.168 μg equiv·g^−1 or mL and the “Concentration of the radioactivity, Fat” value [3] was 0.923 ± 0.308 μg equiv·g^−1 or mL. The “Concentration … Harderian glands” value [3] was 1.91 ± 0.183 μg equiv·g^−1 or mL, the “Concentration … Heart” value [3] was 7.71 ± 1.29 μg equiv·g^−1 or mL and the “Concentration … Intestine” value [3] was 3.07 ± 0.233 μg equiv·g^−1 or mL. The “Concentration … Kidneys” value [3] was 10.6 ± 1.16 μg equiv·g^−1 or mL, the “Concentration … Liver” value [3] was 7.51 ± 0.438 μg equiv·g^−1 or mL and the “Concentration … Lungs” value [3] was 8.37 ± 1.27 μg equiv·g^−1 or mL. For the same substance, the “Concentration … Pancreas” value [3] was 3.83 ± 0.582 μg equiv·g^−1 or mL, the “Concentration … Pituitary” value [3] was 13.9 ± 2.71 μg equiv·g^−1 or mL and the “Concentration … Plasma” value [3] was 99.6 ± 2.94 μg equiv·g^−1 or mL. The “Concentration … Skeletal muscle” value [3] was 0.447 ± 0.037 μg equiv·g^−1 or mL, the “Concentration of the radioactivity, Skin” value [3] was 1.41 ± 0.175 μg equiv·g^−1 or mL and the “Concentration … Spinal cord” value [3] was 0.662 ± 0.070 μg equiv·g^−1 or mL. For the same substance, the “Concentration … Spleen” value [3] was 5.51 ± 0.776 μg equiv·g^−1 or mL, the “Concentration … Stomach” value [3] was 2.69 ± 0.013 μg equiv·g^−1 or mL and the “Concentration … Submandibular lymph nodes” value [3] was 4.25 ± 0.140 μg equiv·g^−1 or mL. The “Concentration … Testes” value [3] was 4.01 ± 0.254 μg equiv·g^−1 or mL, the “Concentration … Thymus” value [3] was 1.02 ± 0.040 μg equiv·g^−1 or mL and the “Concentration … Thyroid gland” value [3] was 10.1 ± 1.79 μg equiv·g^−1 or mL. For the same substance, the “Concentration … Urinary bladder” value [3] was 3.53 ± 0.234 μg equiv·g^−1 or mL, the “Concentration … Adrenals” value [4] was 10.0 ± 1.15 μg equiv·g^−1 or mL and the “Concentration … Blood” value [4] was 39.7 ± 2.51 μg equiv·g^−1 or mL. For the same substance, the “Concentration … (femur)” value [4] was 1.16 ± 0.177 μg equiv·g^−1 or mL, the “Concentration … Bone marrow” value [4] was 8.50 ± 1.23 μg equiv·g^−1 or mL and the “Concentration … Brain” value [4] was 0.646 ± 0.050 μg equiv·g^−1 or mL. The “Concentration of the radioactivity, Eyes” value [4] was 0.806 ± 0.063 μg equiv·g^−1 or mL, the “Concentration of the radioactivity, Fat” value [4] was 1.65 ± 0.392 μg equiv·g^−1 or mL and the “Concentration … Harderian glands” value [4] was 2.55 ± 0.105 μg equiv·g^−1 or mL. For the same substance, the “Concentration … Heart” value [4] was 6.28 ± 0.256 μg equiv·g^−1 or mL, the “Concentration … Intestine” value [4] was 3.10 ± 0.144 μg equiv·g^−1 or mL and the “Concentration … Kidneys” value [4] was 8.75 ± 1.47 μg equiv·g^−1 or mL. The “Concentration … Liver” value [4] was 9.26 ± 0.516 μg equiv·g^−1 or mL, the “Concentration … Lungs” value [4] was 7.22 ± 0.464 μg equiv·g^−1 or mL and the “Concentration … Pancreas” value [4] was 5.14 ± 0.582 μg equiv·g^−1 or mL. For the same substance, the “Concentration … Pituitary” value [4] was 13.7 ± 2.02 μg equiv·g^−1 or mL, the “Concentration … Plasma” value [4] was 64.1 ± 5.12 μg equiv·g^−1 or mL and the “Concentration … Skeletal muscle” value [4] was 0.584 ± 0.044 μg equiv·g^−1 or mL. The “Concentration of the radioactivity, Skin” value [4] was 3.29 ± 0.308 μg equiv·g^−1 or mL, the “Concentration … Spinal cord” value [4] was 0.442 ± 0.090 μg equiv·g^−1 or mL and the “Concentration … Spleen” value [4] was 10.2 ± 1.04 μg equiv·g^−1 or mL. For the same substance, the “Concentration … Stomach” value [4] was 3.01 ± 0.168 μg equiv·g^−1 or mL, the “Concentration … Submandibular lymph nodes” value [4] was 5.72 ± 0.303 μg equiv·g^−1 or mL and the “Concentration … Testes” value [4] was 4.15 ± 0.605 μg equiv·g^−1 or mL. The “Concentration … Thymus” value [4] was 1.90 ± 0.201 μg equiv·g^−1 or mL, the “Concentration … Thyroid gland” value [4] was 10.2 ± 1.10 μg equiv·g^−1 or mL and the “Concentration … Urinary bladder” value [4] was 6.18 ± 0.260 μg equiv·g^−1 or mL. For the same substance, the “tissue to plasma ratios” value (after 24 h, in most tissues) was over 1 and the “tissue to plasma ratios” value (through at least 24 h after dosing) was under 1.
